Columns and labels:
Experiment in all cases: PEPSCAN ELISA, looped peptide, antibody 10 µg/ml
[1] = target: looped/cyclic peptide … (rabies virus strain ERA)
[2] = target: looped/cyclic peptide … (rabies virus strain ERA); remark: listed apart in the source
[3] = target: looped/cyclic peptide … (rabies virus strain ERA); remark: listed apart in the source
[4] = target: looped/cyclic peptide … (rabies virus strain ERA); remark: listed apart in the source
[5] = target: looped/cyclic peptide … (rabies virus strain ERA); remark: listed apart in the source
[6] = target: looped/cyclic peptide … (rabies virus strain ERA); remark: listed apart in the source
[7] = target: looped/cyclic peptide … (rabies virus strain ERA); remark: listed apart in the source
[8] = target: looped/cyclic peptide … (rabies virus strain ERA); remark: listed apart in the source
[9] = target: looped/cyclic peptide … (rabies virus strain ERA); remark: listed apart in the source
[10] = target: looped/cyclic peptide … (rabies virus strain ERA); remark: listed apart in the source
[11] = target: looped/cyclic peptide DIHHLSCPNNLVVED (rabies virus strain ERA)
[12] = target: looped/cyclic peptide […] (rabies virus strain ERA)
[13] = target: looped/cyclic peptide … (rabies virus strain ERA); remark: listed apart in the source
[14] = target: looped/cyclic peptide … (rabies virus strain ERA); remark: listed apart in the source
[15] = target: looped/cyclic peptide … (rabies virus strain ERA); remark: listed apart in the source
[16] = target: looped/cyclic peptide … (rabies virus strain ERA); remark: listed apart in the source
[17] = target: looped/cyclic peptide … (rabies virus strain ERA); remark: listed apart in the source
[18] = target: looped/cyclic peptide … (rabies virus strain ERA); remark: listed apart in the source
[19] = target: looped/cyclic peptide … (rabies virus strain ERA); remark: listed apart in the source
[20] = target: looped/cyclic peptide … (rabies virus strain ERA); remark: listed apart in the source
[21] = target: looped/cyclic peptide … (rabies virus strain ERA); remark: listed apart in the source
[22] = target: looped/cyclic peptide … (rabies virus strain ERA); remark: listed apart in the source
[23] = target: looped/cyclic peptide … (rabies virus strain ERA); remark: listed apart in the source
[24] = target: looped/cyclic peptide … (rabies virus strain ERA); remark: listed apart in the source
[25] = target: looped/cyclic peptide … (rabies virus strain ERA); remark: listed apart in the source
[26] = target: looped/cyclic peptide … (rabies virus strain ERA); remark: listed apart in the source
[27] = target: looped/cyclic peptide … (rabies virus strain ERA); remark: listed apart in the source
[28] = target: looped/cyclic peptide … (rabies virus strain ERA); remark: listed apart in the source
[29] = target: looped/cyclic peptide … (rabies virus strain ERA); remark: listed apart in the source
[30] = target: looped/cyclic peptide … (rabies virus strain ERA); remark: listed apart in the source
[31] = target: looped/cyclic peptide … (rabies virus strain ERA); remark: listed apart in the source
[32] = target: looped/cyclic peptide … (rabies virus strain ERA); remark: listed apart in the source
[33] = target: looped/cyclic peptide … (rabies virus strain ERA); remark: listed apart in the source
[34] = target: looped/cyclic peptide … (rabies virus strain ERA); remark: listed apart in the source
[35] = target: looped/cyclic peptide … (rabies virus strain ERA); remark: listed apart in the source
[36] = target: looped/cyclic peptide … (rabies virus strain ERA); remark: listed apart in the source
[37] = target: looped/cyclic peptide … (rabies virus strain ERA); remark: listed apart in the source
[38] = target: looped/cyclic peptide … (rabies virus strain ERA); remark: listed apart in the source
[39] = target: looped/cyclic peptide … (rabies virus strain ERA); remark: listed apart in the source
[40] = target: looped/cyclic peptide … (rabies virus strain ERA); remark: listed apart in the source
[41] = target: looped/cyclic peptide … (rabies virus strain ERA); remark: listed apart in the source
[42] = target: looped/cyclic peptide … (rabies virus strain ERA); remark: listed apart in the source
[43] = target: looped/cyclic peptide … (rabies virus strain ERA); remark: listed apart in the source
[44] = target: looped/cyclic peptide … (rabies virus strain ERA); remark: listed apart in the source
[45] = target: looped/cyclic peptide … (rabies virus strain ERA); remark: listed apart in the source
[46] = target: looped/cyclic peptide … (rabies virus strain ERA); remark: listed apart in the source
[47] = target: looped/cyclic peptide … (rabies virus strain ERA); remark: listed apart in the source
[48] = target: looped/cyclic peptide … (rabies virus strain ERA); remark: listed apart in the source
[49] = target: looped/cyclic peptide … (rabies virus strain ERA); remark: listed apart in the source
[50] = target: looped/cyclic peptide … (rabies virus strain ERA); remark: listed apart in the source
[51] = target: looped/cyclic peptide … (rabies virus strain ERA); remark: listed apart in the source
[52] = target: looped/cyclic peptide … (rabies virus strain ERA); remark: listed apart in the source
[53] = target: looped/cyclic peptide … (rabies virus strain ERA); remark: listed apart in the source
[54] = target: looped/cyclic peptide … (rabies virus strain ERA); remark: listed apart in the source
[55] = target: looped/cyclic peptide … (rabies virus strain ERA); remark: listed apart in the source
[56] = target: looped/cyclic peptide … (rabies virus strain ERA); remark: listed apart in the source
[57] = target: looped/cyclic peptide … (rabies virus strain ERA); remark: listed apart in the source
[58] = target: looped/cyclic peptide … (rabies virus strain ERA); remark: listed apart in the source
[59] = target: looped/cyclic peptide … (rabies virus strain ERA); remark: listed apart in the source
[60] = target: looped/cyclic peptide … (rabies virus strain ERA); remark: listed apart in the source
[61] = target: looped/cyclic peptide … (rabies virus strain ERA); remark: listed apart in the source

B1: human monoclonal antibody CRJA (antibody, V domains shown)
VH: EVQLLESGGGLVQPGGSLRLSCAASGFTFSNYAMSWVRQAPGKGLEWVSAISASGHSTYLADSVKGRFTISRDNSKNTLYLQMNSLRAEDTAVYYCAKDREVTMIVVLNGGFDYWGQGTRVTVSS
VL: EIVLTQSPATLSLSPGERATLACRASQTASRYLAWYQQKPGQAPRLLIYDTSNRATGIPARFSGSGSGTDFTLSISSLEPEDFAVYYCQQRFNWPWTFGQGTKVEFK
- OD value [1]: 55 OD
- OD value [2]: 104 OD
- OD value [3]: 58 OD
- OD value [4]: 113 OD
- OD value [5]: 55 OD
- OD value [6]: 69 OD
- OD value [7]: 125 OD
- OD value [8]: 113 OD
- OD value [9]: 78 OD
- OD value [10]: 108 OD
- OD value [11]: 62 OD
- OD value [12]: 186 OD
- OD value [13]: 68 OD
- OD value [14]: 92 OD
- OD value [15]: 96 OD
- OD value [16]: 86 OD
- OD value [17]: 92 OD
- OD value [18]: 71 OD
- OD value [19]: 79 OD
- OD value [20]: 90 OD
- OD value [21]: 86 OD
- OD value [22]: 58 OD
- OD value [23]: 86 OD
- OD value [24]: 84 OD
- OD value [25]: 82 OD
- OD value [26]: 96 OD
- OD value [27]: 118 OD
- OD value [28]: 86 OD
- OD value [29]: 57 OD
- OD value [30]: 72 OD
- OD value [31]: 46 OD
- OD value [32]: 54 OD
- OD value [33]: 90 OD
- OD value [34]: 100 OD
- OD value [35]: 110 OD
- OD value [36]: 123 OD
- OD value [37]: 92 OD
- OD value [38]: 58 OD
- OD value [39]: 84 OD
- OD value [40]: 89 OD
- OD value [41]: 96 OD
- OD value [42]: 90 OD
- OD value [43]: 90 OD
- OD value [44]: 117 OD
- OD value [45]: 74 OD
- OD value [46]: 57 OD
- OD value [47]: 71 OD
- OD value [48]: 58 OD
- OD value [49]: 110 OD
- OD value [50]: 92 OD
- OD value [51]: 100 OD
- OD value [52]: 104 OD
- OD value [53]: 96 OD
- OD value [54]: 96 OD
- OD value [55]: 96 OD
- OD value [56]: 88 OD
- OD value [57]: 93 OD
- OD value [58]: 87 OD
- OD value [59]: 66 OD
- OD value [60]: 71 OD
- OD value [61]: 89 OD

From patent publication US20060263802A1 (CRUCELL HOLLAND B V, published 2006)
